Experimental data: patent publication US20250340890A1

Target: human angiotensin converting enzyme 2 (hACE2) (human) (UniProt Q9BYF1)

## His-tagged Delta variant SARS-CoV-2 S1S2 protein (ligand)
  Absorbance (λ450 nm), after background correction, Average (absorbance units): 0.551
  Absorbance (λ450 nm), after background correction, Trial 1 (absorbance units): 0.538
  Absorbance (λ450 nm), after background correction, Trial 2 (absorbance units): 0.558
  Absorbance (λ450 nm), after background correction, Trial 3 (absorbance units): 0.557
  Absorbance (λ450 nm), before background correction, Trial 1 (absorbance units): 0.578
  Absorbance (λ450 nm), before background correction, Trial 2 (absorbance units): 0.598
  Absorbance (λ450 nm), before background correction, Trial 3 (absorbance units): 0.597

## His-tagged Omicron variant SARS-CoV-2 S1S2 protein (ligand)
  Absorbance (λ450 nm), after background correction, Average (absorbance units): 0.489
  Absorbance (λ450 nm), after background correction, Trial 1 (absorbance units): 0.482
  Absorbance (λ450 nm), after background correction, Trial 2 (absorbance units): 0.49
  Absorbance (λ450 nm), after background correction, Trial 3 (absorbance units): 0.494
  Absorbance (λ450 nm), before background correction, Trial 1 (absorbance units): 0.522
  Absorbance (λ450 nm), before background correction, Trial 2 (absorbance units): 0.53
  Absorbance (λ450 nm), before background correction, Trial 3 (absorbance units): 0.534
